# ± gives the uncertainty stated by the source.
# Experiment: protein stability index of a GFP-peptide fusion (yeast GPS) (PSI 1-4); higher = more stable; sorted into four equal gates, so the index is relative within each strain
# Method in brief: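 Yeast carrying a pooled library were grown to mid-log phase in leucine-free medium. Each library plasmid expresses Cherry and has a tiled 17-residue yeast protein peptide fused downstream of GFP. Cells were sorted into four equal gates by GFP/Cherry ratio, and plasmids from each gate were PCR-amplified, Illumina-sequenced and assigned to strains by barcode. Summing, across gates, the read frequency times the gate number gave each peptide's protein stability index.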
sequence,measurement,setting,value
QNNNTLGGGGLFGQSQQ [YGR119C/NUP57],protein stability index,doa10∆,3.43 ± 0.13
same,protein stability index,pdr5∆,3.27 ± 0.29
same,protein stability index,san1∆,3.18 ± 0.12
same,protein stability index,ubr1∆,3.07 ± 0.087
QNPMRDLKIEKLVLNIS [RPL11A],protein stability index,doa10∆,3.04 ± 0.076
same,protein stability index,pdr5∆,3.09 ± 0.08
same,protein stability index,san1∆,3.33 ± 0.082
same,protein stability index,ubr1∆,2.84 ± 0.11
QNSKEKNGLGLNFSTTA [MED2],protein stability index,doa10∆,2.9 ± 0.11
same,protein stability index,pdr5∆,3.13 ± 0.064
same,protein stability index,san1∆,2.94 ± 0.056
same,protein stability index,ubr1∆,2.99 ± 0.089
QNYRLDGRSFDQFRDVE [RRP45],protein stability index,doa10∆,3.42 ± 0.15
same,protein stability index,pdr5∆,3.26 ± 0.16
same,protein stability index,san1∆,3.34 ± 0.13
same,protein stability index,ubr1∆,3.32 ± 0.092
QPASYHSVQETNKISPK [SSN2],protein stability index,doa10∆,3.34 ± 0.098
same,protein stability index,pdr5∆,3.1 ± 0.12
same,protein stability index,san1∆,3.08 ± 0.068
same,protein stability index,ubr1∆,1.91 ± 0.069
QPIEKNGDKMPLKFKLG [YJR042W/NUP85],protein stability index,doa10∆,2.74 ± 0.064
same,protein stability index,pdr5∆,2.98 ± 0.069
same,protein stability index,san1∆,2.52 ± 0.086
same,protein stability index,ubr1∆,3.08 ± 0.042
QPKGVILYGPPGTGKTL [RPT6],protein stability index,doa10∆,3.47 ± 0.15
same,protein stability index,pdr5∆,2.91 ± 0.21
same,protein stability index,san1∆,3.3 ± 0.15
same,protein stability index,ubr1∆,2.95 ± 0.21
QPPTNVQPTIGQLPQLP [SNF5],protein stability index,doa10∆,3.14 ± 0.055
same,protein stability index,pdr5∆,3.12 ± 0.063
same,protein stability index,san1∆,3.09 ± 0.054
same,protein stability index,ubr1∆,3.15 ± 0.043
QPQPQPQQQQQHLQFNG [YDL088C/ASM4],protein stability index,doa10∆,2.6 ± 0.036
same,protein stability index,pdr5∆,2.78 ± 0.038
same,protein stability index,san1∆,2.5 ± 0.051
same,protein stability index,ubr1∆,2.919 ± 0.024
QPTIRKDGLKLVGSWKK [RPO21],protein stability index,doa10∆,3.52 ± 0.19
same,protein stability index,san1∆,3.3 ± 0.14
QQIQEQVLKCKESWDPN [YGR119C/NUP57],protein stability index,doa10∆,3.3 ± 0.17
same,protein stability index,san1∆,3.33 ± 0.25
same,protein stability index,ubr1∆,3.52 ± 0.22
QQKLNTRMQRGHRADVG [REC8],protein stability index,doa10∆,2.84 ± 0.16
same,protein stability index,pdr5∆,2.85 ± 0.096
same,protein stability index,san1∆,2.84 ± 0.15
same,protein stability index,ubr1∆,3.3 ± 0.088
QQLAYDLSISALLGDKI [RPN9],protein stability index,doa10∆,2.4 ± 0.052
same,protein stability index,pdr5∆,2.67 ± 0.058
same,protein stability index,san1∆,2.47 ± 0.075
same,protein stability index,ubr1∆,2.15 ± 0.064
QQLRTWKRQISYFLKLL [SRB8],protein stability index,doa10∆,1.63 ± 0.049
same,protein stability index,pdr5∆,2.18 ± 0.066
same,protein stability index,san1∆,1.93 ± 0.088
same,protein stability index,ubr1∆,1.91 ± 0.039
QQPHYIQRTRERKKSIG [DSN1],protein stability index,doa10∆,2.93 ± 0.067
same,protein stability index,pdr5∆,2.85 ± 0.047
same,protein stability index,san1∆,2.63 ± 0.048
same,protein stability index,ubr1∆,2.69 ± 0.051
QQQLYGGNNNNNSTGIA [SWI1],protein stability index,doa10∆,3.12 ± 0.076
same,protein stability index,pdr5∆,3.15 ± 0.066
same,protein stability index,san1∆,3.25 ± 0.053
same,protein stability index,ubr1∆,3.11 ± 0.045
QQQQQNTNNNDTIATSA [GAL11],protein stability index,doa10∆,2.457 ± 0.021
same,protein stability index,pdr5∆,2.576 ± 0.02
same,protein stability index,san1∆,2.478 ± 0.021
same,protein stability index,ubr1∆,2.603 ± 0.018
QQQQQQNGQQPPTTSNL [YML103C/NUP188],protein stability index,doa10∆,2.502 ± 0.02
same,protein stability index,pdr5∆,2.737 ± 0.022
same,protein stability index,san1∆,2.617 ± 0.019
same,protein stability index,ubr1∆,2.661 ± 0.02
QQREAVRQLYKGKKYQP [RPL35A],protein stability index,doa10∆,3.63 ± 0.29
same,protein stability index,pdr5∆,3.42 ± 0.14
same,protein stability index,san1∆,2.94 ± 0.14
same,protein stability index,ubr1∆,2.83 ± 0.091
QQTAKKLIPKLYRYRFD [ECM29],protein stability index,doa10∆,2.24 ± 0.13
same,protein stability index,pdr5∆,2.35 ± 0.1
same,protein stability index,san1∆,2.24 ± 0.14
same,protein stability index,ubr1∆,1.21 ± 0.087
QQYVAAGDLRALDTVTN [FAS1],protein stability index,doa10∆,2.88 ± 0.087
same,protein stability index,pdr5∆,2.87 ± 0.081
same,protein stability index,san1∆,2.92 ± 0.085
same,protein stability index,ubr1∆,2.79 ± 0.13
QRETSGMIVISMENYHL [SRB8],protein stability index,doa10∆,2.16 ± 0.04
same,protein stability index,pdr5∆,1.99 ± 0.04
same,protein stability index,san1∆,2.09 ± 0.042
same,protein stability index,ubr1∆,2.35 ± 0.033
QRGKWNLKYLDNSNVMT [RGR1],protein stability index,doa10∆,2.37 ± 0.093
same,protein stability index,pdr5∆,2.49 ± 0.084
same,protein stability index,san1∆,2.58 ± 0.077
same,protein stability index,ubr1∆,1.95 ± 0.073
QRRGPLVVYAEDNGIVK [RPL4A],protein stability index,doa10∆,3.43 ± 0.11
same,protein stability index,pdr5∆,3.14 ± 0.095
same,protein stability index,san1∆,2.46 ± 0.093
same,protein stability index,ubr1∆,2.68 ± 0.11
QRRTNNSGVGSAKGPEI [MED6],protein stability index,san1∆,3.23 ± 0.19
QRRYVIKEKVQFNATIN [ITC1],protein stability index,doa10∆,1.47 ± 0.04
same,protein stability index,pdr5∆,1.65 ± 0.033
same,protein stability index,san1∆,1.63 ± 0.069
same,protein stability index,ubr1∆,1.68 ± 0.024
QRTTTGARVFGALKGAS [RPL5],protein stability index,doa10∆,2.88 ± 0.2
same,protein stability index,pdr5∆,2.52 ± 0.2
same,protein stability index,ubr1∆,3.05 ± 0.16
QSAIRPAGQATQKRTHV [RPL4A],protein stability index,doa10∆,2.83 ± 0.09
same,protein stability index,pdr5∆,2.8 ± 0.091
same,protein stability index,san1∆,2.72 ± 0.085
same,protein stability index,ubr1∆,2.5 ± 0.074
QSALSQIIRLFYSKNRL [ISW2],protein stability index,doa10∆,2.62 ± 0.066
same,protein stability index,pdr5∆,2.49 ± 0.059
same,protein stability index,san1∆,1.87 ± 0.095
same,protein stability index,ubr1∆,2.61 ± 0.053
QSDLEIITQYVFESLEI [ARP9],protein stability index,doa10∆,2.35 ± 0.067
same,protein stability index,pdr5∆,3.12 ± 0.07
same,protein stability index,san1∆,2.52 ± 0.082
same,protein stability index,ubr1∆,3.01 ± 0.08
QSDSAKVEIKKVNSRDD [PRP28],protein stability index,doa10∆,3.08 ± 0.079
same,protein stability index,pdr5∆,3.44 ± 0.067
same,protein stability index,san1∆,2.73 ± 0.088
same,protein stability index,ubr1∆,2.9 ± 0.12
QSLLSLYFEIIHGVLKN [FAS2],protein stability index,doa10∆,2.37 ± 0.12
same,protein stability index,pdr5∆,1.84 ± 0.076
same,protein stability index,san1∆,2.14 ± 0.17
same,protein stability index,ubr1∆,1.51 ± 0.045
QSLNEMVKLIVMLCTLT [YJL039C/NUP192],protein stability index,doa10∆,2.52 ± 0.071
same,protein stability index,pdr5∆,2.63 ± 0.057
same,protein stability index,san1∆,2.81 ± 0.11
same,protein stability index,ubr1∆,2.27 ± 0.058
QSRLFINELVLENFKSY [SMC4],protein stability index,doa10∆,1.75 ± 0.053
same,protein stability index,pdr5∆,2.34 ± 0.049
same,protein stability index,san1∆,1.94 ± 0.078
same,protein stability index,ubr1∆,2.27 ± 0.042
QSSAIGALQESVEAYLV [HHT1],protein stability index,doa10∆,2.04 ± 0.077
same,protein stability index,pdr5∆,2.81 ± 0.087
same,protein stability index,san1∆,2.39 ± 0.11
same,protein stability index,ubr1∆,2.15 ± 0.079
QSTNLNRSAKNSKNDSA [YCS4],protein stability index,doa10∆,2.53 ± 0.05
same,protein stability index,pdr5∆,2.63 ± 0.05
same,protein stability index,san1∆,2.67 ± 0.064
same,protein stability index,ubr1∆,2.79 ± 0.046
QSTPVLLNHGERAELET [RPN1],protein stability index,doa10∆,3.03 ± 0.13
same,protein stability index,pdr5∆,2.31 ± 0.12
same,protein stability index,san1∆,2.02 ± 0.16
same,protein stability index,ubr1∆,2.66 ± 0.078
QTIMKMGPLSNIAQMIP [SRP54],protein stability index,doa10∆,2.6 ± 0.081
same,protein stability index,pdr5∆,2.67 ± 0.068
same,protein stability index,san1∆,2.58 ± 0.08
same,protein stability index,ubr1∆,2.99 ± 0.07
QTKDSVKEIVLPLFYDL [IRR1],protein stability index,doa10∆,2.42 ± 0.06
same,protein stability index,pdr5∆,2.4 ± 0.057
same,protein stability index,san1∆,2.6 ± 0.05
same,protein stability index,ubr1∆,2 ± 0.035
QTKRWPTMYTRLCICSG [SIN4],protein stability index,doa10∆,1.4 ± 0.039
same,protein stability index,pdr5∆,1.48 ± 0.038
same,protein stability index,san1∆,1.51 ± 0.078
same,protein stability index,ubr1∆,1.58 ± 0.03
QTLKGVGVENNGQYAAF [RPC37],protein stability index,doa10∆,3.12 ± 0.14
same,protein stability index,pdr5∆,3.31 ± 0.098
same,protein stability index,san1∆,2.9 ± 0.18
same,protein stability index,ubr1∆,2.94 ± 0.2
QTLSEKEYQCSAVIIDE [YIL149C/MLP2],protein stability index,doa10∆,2.64 ± 0.11
same,protein stability index,pdr5∆,3.03 ± 0.098
same,protein stability index,san1∆,3.15 ± 0.082
same,protein stability index,ubr1∆,2.88 ± 0.054
QTMQLIKNVQDLLILTR [SRB6],protein stability index,doa10∆,1.51 ± 0.087
same,protein stability index,pdr5∆,1.8 ± 0.091
same,protein stability index,ubr1∆,2.09 ± 0.086
QVASIIESFVELGVSIY [NUT2],protein stability index,doa10∆,2.77 ± 0.13
same,protein stability index,pdr5∆,2.98 ± 0.17
same,protein stability index,san1∆,2.2 ± 0.13
same,protein stability index,ubr1∆,1.76 ± 0.045
QVATKYASLKLPNQIPG [YMR129W/POM152],protein stability index,doa10∆,1.69 ± 0.038
same,protein stability index,pdr5∆,1.68 ± 0.041
same,protein stability index,san1∆,1.67 ± 0.052
same,protein stability index,ubr1∆,1.84 ± 0.029
QVEKLGKKMEARGQSIW [RPN9],protein stability index,doa10∆,1.34 ± 0.15
same,protein stability index,pdr5∆,1.14 ± 0.081
same,protein stability index,ubr1∆,1.18 ± 0.22
QVKKPRKQRVKKKTKKE [SWI1],protein stability index,doa10∆,3.13 ± 0.24
same,protein stability index,pdr5∆,3.37 ± 0.13
same,protein stability index,san1∆,3.5 ± 0.12
same,protein stability index,ubr1∆,3.38 ± 0.1
QVPDSLDDQIFVCEKSI [RPN6],protein stability index,doa10∆,3.01 ± 0.2
same,protein stability index,pdr5∆,3.19 ± 0.1
same,protein stability index,san1∆,2.95 ± 0.084
same,protein stability index,ubr1∆,2.92 ± 0.13
QVRRDIPSAAFNFFEPI [YMR129W/POM152],protein stability index,doa10∆,1.9 ± 0.036
same,protein stability index,pdr5∆,2.23 ± 0.041
same,protein stability index,san1∆,1.96 ± 0.049
same,protein stability index,ubr1∆,2.15 ± 0.031
QVSINSNKILVYESEME [YIL149C/MLP2],protein stability index,doa10∆,2.3 ± 0.11
same,protein stability index,pdr5∆,3 ± 0.16
same,protein stability index,san1∆,1.71 ± 0.21
same,protein stability index,ubr1∆,2.92 ± 0.16
QVVTTVASQSPHATATE [SNF6],protein stability index,doa10∆,2.56 ± 0.11
same,protein stability index,pdr5∆,2.88 ± 0.079
same,protein stability index,san1∆,2.6 ± 0.096
same,protein stability index,ubr1∆,2.79 ± 0.047

# Source: the supplement of paper PMC9732359
